Results as given in article PMC4266924.
Several values for one entry are separate records, joined by “and”; a condition that tells them apart may be missing. Equal entries are not always repeated.

What was measured:
[1] = molecular target: full-length, untagged 18.5-kDa murine MBP (A1-R168) (mouse); assay: ITC; Fyn-SH3 (0.7-1.3 mM) injected into the cell with MBP (45-80 uM); 20 mM HEPES, 100 mM NaCl, pH 7.4; 22 °C; 3 independent measurements; one-set of sites model; apparent values, first 3-4 points excluded (aggregation)
Sequence of full-length, untagged 18.5-kDa murine MBP (A1-R168) (mouse) (P02686 other isoform, or with tags, fused parts or gaps): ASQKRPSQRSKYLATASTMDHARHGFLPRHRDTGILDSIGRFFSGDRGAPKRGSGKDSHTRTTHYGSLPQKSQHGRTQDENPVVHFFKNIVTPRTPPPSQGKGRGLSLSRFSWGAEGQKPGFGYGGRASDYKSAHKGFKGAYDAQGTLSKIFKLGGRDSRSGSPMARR

[2] = molecular target: full-length, untagged 18.5-kDa murine MBP (A1-R168) (mouse); assay: ITC; Fyn-SH3 (0.7-1.3 mM) injected into the cell with MBP (45-80 uM); 20 mM HEPES, 100 mM NaCl, pH 7.4; 37 °C; 2 independent measurements; one-set of sites model; apparent values, first 3-4 points excluded (aggregation)
[3] = molecular target: xα2(S38–S107) peptide of murine 18.5 kDa myelin basic protein (mouse); assay: NMR titration; unlabelled Fyn–SH3 titrated into 0.8 mM 15N-labelled xα2-peptide; 2D 15N-HSQC; 20 mM Hepes, 100 mM NaCl, 10% 2H2O, pH 7.4; molar ratios 1:0 to 1:1.2; fractional saturation fit of Y65 and T95 shifts; KD values are only estimates

“Fyn-SH3 domain (Gallus gallus Fyn, residues 85-142) (from UniProt Q05876 85-142) (domain or fragment)” was tested, and the Kd [1] was 5 µM, the stoichiometry N [1] was 0.6 and the Kd [2] was 5 µM. The stoichiometry N [2] was 1.2.
For “Fyn–SH3 domain (Gallus gallus Fyn tyrosine kinase, residues 85–142) (from UniProt Q05876 85-142) (domain or fragment)”, the Kd [3] was 7.6 µM and 4 µM.
